Assay results as given in PMC3510474, “Distinct gating mechanisms revealed by the structures of a multi-ligand gated K^+ channel” (eLife, 2012).
Each block holds one compound with its values, some of them ahead of it.

Tests used:
[1] = target: full-length GsuK channel, L97D mutant (Geobacter sulfurreducens); assay: crystal structure; full-length channel in DM with E. coli polar lipids, about 6 mg/ml, 20°C, 13–18% PEG3350, 250–500 mM KSCN, 100 mM CHES pH 9.0; space group C2, four subunits in the asymmetric unit as two half channels; L97D also co-crystallised with 1 mM ADP or NAD+
[2] = target: GsuK intracellular subunit (Geobacter sulfurreducens); assay: SEC; Superdex-200 (10/30) in 50 mM Tris–HCl pH 8.0, 250 mM KCl, 2 mM DTT, 4 mM LDAO (GsuK intracellular subunit)
[3] = target: GsuK intracellular subunit (Geobacter sulfurreducens); assay: crystal structure; GsuK intracellular subunit, about 8 mg/ml in LDAO, sitting drop at 20°C, 20–23% PEG3350, 120 mM KCl, 80 mM NaNO3, 1% glycerol, 100 mM Bis-Tris propane pH 8.5; space group I222, four subunits forming a gating ring in the asymmetric unit; 3.0 Å
GsuK [4] = target: T1, GsuK (Geobacter sulfurreducens, UniProt Q74FS9, E52A/L97D, form not given); assay: X-ray crystal structure, […] Å (co-crystallization); type: binding; settings: 1 mM NAD+, pH 9.0; Ca2+-bound closed gating ring; nucleotide site on RCK2, nicotinamide beneath RCK1 helix αF; partial occupancy; allosteric
T1 construct: gene GSU0527; full-length channel from Ala9 with extra N-terminal MQRGS; C-terminal His-tag cut by thrombin; E. coli BL21(DE3); tetramer; model residues 17-564

[5] = target: full-length GsuK channel, wild type (with E52A and Q77E or R) (Geobacter sulfurreducens); assay: SEC; Superdex-200 (10/30) in 20 mM CHES pH 9.0, 150 mM KSCN, 0.1 mg/ml E. coli polar lipid, 2 mM DTT, 4 mM DM (full-length GsuK channel)
[6] = target: full-length GsuK channel, wild type (with E52A and Q77E or R) (Geobacter sulfurreducens); assay: crystal structure; full-length channel in DM with E. coli polar lipids, about 6 mg/ml, 20°C, 13–18% PEG3350, 250–500 mM KSCN, 100 mM CHES pH 9.0; space group C2, four subunits in the asymmetric unit as two half channels; L97D also co-crystallised with 1 mM ADP or NAD+
GsuK [7] = target: T1, GsuK; assay: X-ray crystal structure, […] Å (co-crystallization); type: binding; settings: 1 mM ADP, pH 9.0; Ca2+-bound closed gating ring; nucleotide site on RCK2; allosteric

T1 sequence (Q74FS9 entry or part of it E52A/L97D, form open): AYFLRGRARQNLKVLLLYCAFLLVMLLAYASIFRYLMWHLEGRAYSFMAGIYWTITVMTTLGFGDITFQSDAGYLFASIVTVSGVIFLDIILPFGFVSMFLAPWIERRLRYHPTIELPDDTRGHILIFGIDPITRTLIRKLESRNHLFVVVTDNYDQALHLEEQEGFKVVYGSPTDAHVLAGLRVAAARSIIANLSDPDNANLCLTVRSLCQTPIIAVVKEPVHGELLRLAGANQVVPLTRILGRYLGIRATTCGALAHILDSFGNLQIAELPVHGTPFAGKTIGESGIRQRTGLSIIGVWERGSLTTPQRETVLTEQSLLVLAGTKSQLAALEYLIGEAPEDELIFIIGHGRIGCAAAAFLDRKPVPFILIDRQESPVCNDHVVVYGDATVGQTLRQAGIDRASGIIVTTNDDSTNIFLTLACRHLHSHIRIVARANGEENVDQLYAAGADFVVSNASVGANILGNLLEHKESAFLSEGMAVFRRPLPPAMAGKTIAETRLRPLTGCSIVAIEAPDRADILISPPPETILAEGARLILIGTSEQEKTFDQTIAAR

Compound: full-length GsuK channel, L97D mutant (natural protein)
- stoichiometry N [1]: 4

Compound: NC(=O)c1ccc[n+]([C@@H]2O[C@H](COP(=O)(O)OP(=O)(O)OC[C@H]3O[C@@H](n4cnc5c(N)ncnc54)[C@H](O)[C@@H]3O)[C@@H](O)[C@H]2O)c1 [NAD^+]
- X-ray crystal structure, 3.2 Å (co-crystallization) (GsuK [4]): we also co-crystallized the L97D mutant with ADP and NAD^+

Compound: Nc1ncnc2c1ncn2[C@@H]1O[C@H](COP(=O)(O)OP(=O)(O)O)[C@@H](O)[C@H]1O [ADP]
- X-ray crystal structure, 2.8 Å (co-crystallization) (GsuK [7]): we also co-crystallized the L97D mutant with ADP and NAD^+

The remaining lines, values ahead:

- stoichiometry N [2]: 4
- stoichiometry N [3]: 4
Compound: GsuK intracellular subunit (domain or fragment)

- stoichiometry N [5]: 4
- stoichiometry N [6]: 4
Compound: full-length GsuK channel, wild type (with E52A and Q77E or R) (natural protein)
